For test [1], the target named is HER2 antigen (as used in the ELISA binding assays and on the optoelectronic biosensors) (human) (UniProt P04626). In words: in vitro antigen binding curve (ELISA), half of the effective dose. (In an ELISA, binding on a coated surface is turned into a signal by an enzyme label.)
Test [2] has as its target T1, recombinant HER2 ECD domain (human, UniProt P04626 23-652).
T1 construct: extracellular domain; also called extracellular domain of HER2
In words: Western blot. In general terms: In western blotting, separated proteins are transferred to a membrane and probed.

The target of test [3] is T2, human epidermal growth factor receptor 2 (HER2), native, in SK-BR-3 and SK-OV-3 cells and cell lysates (human, UniProt P04626 23-1255).
T2 construct: whole, on cells; Detected in denatured cell lysates (Western blot) and in fixed cells (immunofluorescence); also called HER2 antigen; HER2 protein
Kind of test: immunofluorescence on fixed cells.

In test [4] the target is HER2 antigen (as used in the ELISA binding assays and on the optoelectronic biosensors) (human) (UniProt P04626). Kind of test: direct ELISA, lot SDS-20220126 after 340 days at -80°C; amount of antibody that binds half of the available antigen.
Test [5] shares this target. Kind of test: direct ELISA, lot SDS-20211201 after 430 days at -80°C; amount of antibody that binds half of the available antigen.
The target is the same in test [6]. In words: direct ELISA, lot SDS-20220120 after 341 days at -80°C; amount of antibody that binds half of the available antigen.
The target is the same in test [7]. In words: direct ELISA, lot SDS-20211231 after 352 days at -80°C; amount of antibody that binds half of the available antigen.

This is an account of results in patent EP4345113A1 (SDS Optic Spolka Akcyjna, dated 2024).

B1: mAb anti-human-HER2/70.27.58 - clone 58 (antibody, V domains shown)
VH: EVQLQQSGPELEKPGASVKISCKASGYSFTGYNMNWVKQSNGKSLEWIGTIDPNYGTSYNQKFKGKATLTVDKSSSTAYMHLKSLTSEDSSVYYCARRKVNYEAWFAFWGQGTLVTVSA
VL: DIVLTQSPASLAVSLGQRATISCRASESVDSYGNSFMHWYQQKPGQPPKLLIYRASNLESGIPARFSGSGSRTDFTLTINPVEADDVATYYCQQSNEDPFTFGSGTKLEIKR
notes: also called mAb anti-human-HER2/clone 58; anti-HER2/70.27.58
Consider B1, for which the ED50 in test [1] was 0.0922 nM. For the same molecule, the binding result in test [2] and in test [3] was “binds” throughout.

B2: mAb anti-human-HER2/70.21.73.67 - clone 67 (antibody, V domains shown)
VH: EIQLQQSGPELVKPGASVRVSCKASGYSFTDYNMYWVRQSQGESLEWIGYIDHYNGNTGYNQKFRDKATLTVDKASSTAFMHLNSLTSEDSAVYYCARHYDYGAMDYWGQGTSVTVSS
VL: DIVMTQSQKFMSTSVGDRVSVTCKASQNVGTNVAWYQQKPGQSPKALIYSASYRYSGVPDRFTGSGSGTDFTLTISTVQSEDLAEYFCQHYYIYPLTFGAGTKLELKR
notes: Used as a biotin complex in the sandwich ELISA; No cleavage site is stated; also called mAb anti-human-HER2/clone 67; anti-HER2/70.21.73.67
Consider B2, for which the ED50 in test [4] was 0.0043 µg; in test [1], 0.235 nM; in test [5], 0.0046 µg; in test [6], 0.004 µg; in test [7] it was 0.0043 µg. Further, the binding result in test [2] and in test [3] was “binds” each time.
